Several values for one entry are separate records, joined by “and”; a condition that tells them apart may be missing. Equal values may be shown once. Read-outs that look alike come from different tables or passages of the source.

For experiment [1], the target named is human NKG2D (hNKG2D) on the cell surface (human) (UniProt P26718). Put plainly: flow cytometry, NKG2D/DAP10 BaF/3 cells pre-incubated with antibody, then 1 µg hFc-MICA (competitor). Background: Flow cytometry measures light scatter and fluorescence of single cells or particles in a stream.
Experiment [2] has the same target. The experiment is described as above. This is another data set of the same source.
Experiment [3] shares this target. Put plainly: flow cytometry, NKG2D-expressing cells pre-incubated with ON72 (0.3 µg), then 16F16 IgG4 (0.3 µg, competitor); legend of FIG. 9A.
Experiment [4] has the same target. Put plainly: flow cytometry, dose-response on NKG2D- and DAP10-expressing BaF/3 cells, y axis % of max binding.
For experiment [5] the target is unchanged. The experiment is described as follows: cell-based or functional assay.
The target of experiment [6] is recombinant NKG2D-Fc protein (R&D Systems), immobilized on a Biacore CM5 chip (human) (UniProt P26718). Put plainly: SPR (Biacore), NKG2D-Fc immobilized on CM5 chip, antibody in solution. (In general: SPR reads the build-up and loss of mass on a sensor chip optically.)
The target in experiment [7] is human NKG2D (hNKG2D) on the cell surface (human) (UniProt P26718). Put plainly: flow cytometry, NKG2D-expressing cells pre-incubated with ON72, then recombinant 16F16 (competitor).
Experiment [8] shares this target. Put plainly: flow cytometry blocking assay on NKG2D/DAP10-expressing BaF/3 cells: pre-incubation with the antibody, then 1 µg MICA-Fc (hFc-MICA, m12, for ON72 according to paragraph 390); y axis % remaining MICA-Fc binding.
Experiment [9] has the same target. Put plainly: flow cytometry, dose-response on NKG2D- and DAP10-expressing BaF/3 cells.

recombinant NKG2D-Fc protein (R&D Systems), immobilized on a Biacore CM5 chip (human), sequence (P26718 78-216): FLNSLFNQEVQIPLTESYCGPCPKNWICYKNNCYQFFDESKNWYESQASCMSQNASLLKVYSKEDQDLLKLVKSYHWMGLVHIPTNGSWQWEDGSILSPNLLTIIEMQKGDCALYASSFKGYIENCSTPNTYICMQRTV
human NKG2D (hNKG2D) on the cell surface (human), sequence (P26718 whole entry T72A): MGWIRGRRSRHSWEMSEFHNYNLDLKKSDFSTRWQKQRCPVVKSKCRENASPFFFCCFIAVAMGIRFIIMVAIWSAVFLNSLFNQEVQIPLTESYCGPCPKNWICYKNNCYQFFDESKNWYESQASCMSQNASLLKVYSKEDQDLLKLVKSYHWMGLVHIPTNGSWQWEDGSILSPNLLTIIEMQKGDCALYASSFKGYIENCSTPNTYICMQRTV

On to “ON72, commercially available murine anti-hNKG2D monoclonal antibody (Beckman Coulter Inc.)”, for which, in experiment [1], the IC50 (in general, the concentration that inhibits the measured activity by half) stood at 0.019 µg/mL and the full blockade of 1 µg MICA-Fc (antibody concentration) is 0.54 µg/mL. Besides, in experiment [2], the IC50 amounted to 0.02 nM and the full blockade of 1 µg MICA-Fc (antibody concentration) is 0.24 nM. This substance had a % of 16F16 binding prevented in [3] of 85%. Besides, the concentration giving a half-maximal response (EC50 (read off the curve)) (usually the concentration that produces a half-maximal response) in [4] amounted to 0.06 nM. Moreover, in experiment [5], the % proliferation of PBMC, stimulation CD3 0.1 + CD28 + ON72 (immobilized antibodies) came out at 22.9%; the % proliferation of PBMC, stimulation CD3 0.1 + ON72 (immobilized antibodies) came to 7.12%; the % proliferation of PBMC, stimulation CD3 0.3 + CD28 + ON72 (immobilized antibodies) amounted to 40.1%; the % proliferation of PBMC, stimulation CD3 0.3 + ON72 (immobilized antibodies) was 28.4%. In addition, in experiment [5], the EC50 (µg/ml), inhibition of NK cell killing of ULPB3-expressing target cells (51Cr release) is 0.065 µg/mL; the down-modulation of cell-surface NKG2D, NKG2D/DAP10 BaF/3 cells, overnight incubation was 55%; the internalization of NKG2D at 1 h, NKG2D+ lymphocytes in whole blood, 0.1 µg/ml is 50 to 75%; the internalization of NKG2D at 24 h, NKG2D+ lymphocytes in whole blood, 0.1 µg/ml came to 100%. In experiment [6], the Kd (usually the equilibrium constant for the complex coming apart) was found to be 0.17 nM; the koff (as a rule, the rate constant with which the complex falls apart) is 0.00011 s⁻¹; the on-rate (kon) – broadly, the second-order rate constant of association – came out at 960000 M⁻¹ s⁻¹. Besides, the % of 16F16 binding blocked in experiment [7] was 82%. In experiment [8], this substance registered an IC50 (read off the curve) of 0.02 nM. Further, the concentration giving a half-maximal response (EC50) (commonly the midpoint of the concentration-response curve) in [9] was 0.062 µg/mL and 0.048 nM.

These data come from patent US20100056764A1.
